# Laboratory results reported in the supplement of paper PMC12042874.
# ± gives the uncertainty stated by the source.
# Experiment: amyloid nucleation score (Sup35N fusion, yeast selection) (log enrichment); library NNK1; higher = more nucleation; inactive = no reads after selection
# Summary of the method: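 Nucleation score is defined as the DiMSum log enrichment of output over input reads, with centring on the mode score of non-aggregating sequences. A minimum of 100 input reads was required for each sequence. Reads came from Illumina sequencing of plasmid inserts from psi-negative yeast expressing Sup35N fused to peptides of 20 random codons, induced with 100 μM copper sulfate for 24 hours and grown 7 days at 30°C on medium lacking adenine and uracil.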
row,Substance,amyloid nucleation score
1,GIKRHIEDCLV,1.04 ± 0.46
2,GILDTLKVEVLGSVVHS,1.01 ± 0.59
3,GIPSKTFDVCSSPNIKSILF,0.317 ± 1.2
4,GKENSVTGHRGYSDVAVGMQ,0.286 ± 1.4
5,GKFDSGYVKGTVHNEAEFQP,-0.223 ± 0.31
6,GKPLTTVVAIIF,3.56 ± 0.11
7,GKSCGHFWGRLNEGGQKLRV,-0.772 ± 0.64
8,GKSLLKSYCIRMPLFSRNTL,inactive
9,GLALHGIEWVCCVQDQSFDR,7.08 ± 0.071
10,GLGDVKNHEFNHVDAEGSGR,-0.741 ± 0.83
11,GLGWHFTL,-0.407 ± 0.28
12,GLIMYPRGYMCKSIT,0.813 ± 0.43
13,GLIQYPGFIASMYPSDNTSC,0.135 ± 0.41
14,GLKMFKMCLCNMALDIF,7.428 ± 0.073
15,GLLNTYS,0.626 ± 1.2
16,GLLRAA,0.296 ± 0.27
17,GLMVHRDFGIECLQHETHFG,0.074 ± 0.26
18,GLMWKAN,0.537 ± 0.67
19,GLNALSFNQV,-0.383 ± 0.48
20,GLPLNA,inactive
21,GLPLYVHVAVEVIWL,0.058 ± 0.65
22,GLQEVCWC,-1.67 ± 2.4

row,Substance,amyloid nucleation score
1,GLRKYVKPVYSMCVFFLKWA,1.02 ± 0.58
2,GLSIQ,0.288 ± 0.44
3,GLSWYCGHLAKR,1.48 ± 0.49
4,GLVIELNPFKSLLSSPWVFF,0.335 ± 0.71
5,GLVNLADTGTVVDPSKGWLG,-0.441 ± 0.61
6,GLVSQPFWCSYKCGGHNHKG,0.314 ± 1.4
7,GLYLNGPVINMWVVVASREV,7.512 ± 0.044
8,GMAHDWSRQWVRVSDAVLLR,-0.004 ± 0.6
9,GMDLQVMSHCASIHNNS,-0.199 ± 0.37
10,GMVSIII,0.276 ± 0.51
11,GNCPNQIGAYVVKIIRMPAL,-0.311 ± 0.55
12,GNLRNMLMTYSSSVGNKLIF,-0.344 ± 0.57
13,GNNRCDVIIMVFFK,1.7 ± 0.12
14,GNRGSSKV,inactive
15,GNSVIDRSFGIFNCYEGLSC,1.62 ± 0.72
16,GNVLDFCPWLVGLLCHGGGV,0.149 ± 0.35
17,GNWLSS,-0.082 ± 0.9
18,GPFSDVAGQKVRCGRLVATR,-0.212 ± 0.66
19,GPRVSPVKFIVRLGQVNLDR,0.448 ± 0.61
20,GQHSFGAECTVQSCGWGCRW,1.33 ± 0.34
21,GQRSLT,-0.088 ± 0.24
22,GRAFG,-0.557 ± 2.1

row,Substance,amyloid nucleation score
1,GREMYRLLHLNVEYTHGTRY,3.79 ± 0.075
2,GRFFVHEVGMFQTSGQ,-0.187 ± 1.3
3,GRGHREPIVKDAAGRLGSWS,-0.421 ± 0.94
4,GRGKPMTLASKFIAGRFVF,0.521 ± 0.97
5,GRGTGAVFVYVEWSLYGN,-0.036 ± 0.47
6,GRHRRSRRM,inactive
7,GRLVVGIREGIIS,0.058 ± 0.35
8,GRMAGMFWNCGGCMEMDSVC,1.14 ± 0.68
9,GRMLLM,-1.25 ± 1.1
10,GRQGYMAYFVMALLLCIFTH,0.128 ± 0.48
11,GRRGKWVSSPWGGELKTCSK,4.24 ± 0.084
12,GRRVFGRYVQINNGPISRFF,0.266 ± 1.1
13,GRSLAFTSYCLMKGLTSVSV,-0.383 ± 0.29
14,GRSRTRTRLLPGSEGGYDRP,-1.64 ± 0.98
15,GRTAQAVRGGRAVVYAGLKL,-0.157 ± 0.36
16,GRVKINKNLSVYKYINFRDS,2.04 ± 0.21
17,GRVQL,0.405 ± 0.48
18,GSALIE,1.5 ± 0.74
19,GSCSYSYCTNFVRTMYGAYG,0.379 ± 0.71
20,GSDVREWLVQQSKSMFLWVW,-0.226 ± 0.47
21,GSEFQVLSFF,0.419 ± 0.58
22,GSLIIHHQWFFVIAMRVSLS,0.419 ± 0.53

row,Substance,amyloid nucleation score
1,GSRFPFLVVDMCSSELVKR,0.577 ± 0.63
2,GSRHFRDSVLSDVNVWYLKN,-0.026 ± 0.35
3,GSRNCIWLFFVVWV,inactive
4,GSRSQCAPSQFLAAGTHNKF,-1.17 ± 0.84
5,GSSENRFF,inactive
6,GSSKWISSHRVIDDFSYKRG,0.406 ± 0.49
7,GTFALIN,-1.2 ± 0.68
8,GTFDSN,0.045 ± 0.46
9,GTFVEISRYIDGCHLVFGNR,2.38 ± 0.16
10,GTGHVFQCCRMTLLQSSLDG,-0.832 ± 0.88
11,GTKNLCDYIWPGPPGSVVRN,-0.159 ± 0.56
12,GTMTRWWFVVCTEKTAGTNR,0.374 ± 0.44
13,GTNWDMLCYIVLTYGVVRAF,-0.116 ± 0.51
14,GTTSVSAINGR,-0.545 ± 0.8
15,GTTVPGFCITKSVKTMGRNQ,0.643 ± 0.39
16,GVCFLAR,0.707 ± 0.74
17,GVCKTYSIDKAPI,0.823 ± 0.51
18,GVCRLLGKVAMLV,-2.1 ± 2.4
19,GVGDTNCSEL,0.178 ± 0.33
20,GVGRRMSMWYVCDAGWEAWR,3.16 ± 0.094
21,GVRAVLFETWCRN,-0.693 ± 1
